From patent US20210401961A1

Target: HB-EGF receptor (UniProt Q99075)
Experiment: cell-based or functional assay

Sequence of UniProt Q99075 (Q99075 63-148 limits assumed): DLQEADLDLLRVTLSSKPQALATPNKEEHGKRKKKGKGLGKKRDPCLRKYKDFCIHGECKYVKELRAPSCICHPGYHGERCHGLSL

CRM197-Alexa488 (from UniProt P00587 26-560)
labelling of OV90 tumor cells with CRM197-Alexa488 after 24 hours (flow cytometry, 10 µg/mL): 98.2%
percentage of CRM197-Alexa488 uptake by OV90 tumor cells after 4 hours (flow cytometry, 10 µg/mL): 82%
percentage of OV90 tumor cells with CRM197-Alexa488 signal after 4 hours with trypan blue quenching (intracellular): 72.7%
percentage of OV90 tumor cells with CRM197-Alexa488 signal after 24 hours with trypan blue quenching (intracellular): 97.6%
